Experimental data reported in the supplement of paper PMC10567573.

B1: RPS21 (parent)
chain: AEVSWEPGRREGCDICAGKAGCPI

Variants of: B1
Assay: protein stability index of a GFP-peptide fusion (GPS, HEK-293T) (PSI 1-6); higher = more stable
Conditions: c terminus: a fixed tail appended
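Note: lentivirally expressed fusions sorted by FACS into six bins by GFP to DsRed ratio, PSI derived from sequencing read proportions per bin multiplied by bin number.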

Protein stability index, by site and new letter:
I15: V 3.53; M 3.42; R 2.96; Y 3.21; W 3.74; F 2.08; T 3.83; Q 3.46; E 4.25; C 4.43; G 4.06; S 4.14; H 4.36; L 2.43
R10: A 3.49; P 1.9; T 3.2; F 2.46; H 4.11; K 3.32; G 2.52; Y 4.13; I 2.91; E 2.81; C 3.8; Q 3.09; S 3.14; N 3.47; L 2.84; V 2.69
P7: V 2.23; S 2.77; R 2.53; H 3.92; Q 2.6; F 2.21; Y 2.9; E 4; I 2.97; C 2.69
G12: D 4.16; N 3.07; Q 2.45; P 3.21; T 3.67; V 2.63; C 3.29; E 3.86; I 2.52; W 4.38; M 4.41; K 2.5
E11: T 2.87; S 2.96; Y 2.69; K 2.6; D 3.37; I 2.56; F 4.96; W 2.13; H 3.53; N 2.55; A 1.95; L 2.46; G 1.99; C 3.22; P 2.92
R9: Y 3.1; I 3.14; A 3.95; Q 3.75; M 3.02; D 4.04; P 3.26; N 3.35; W 2.67; L 3.49; T 3.67; F 3.89
C13: E 4.21; V 5.29; G 3.88; T 4.38; M 4.01; A 2.49; F 3.97; Y 3.84; H 4.27; R 4.04; D 4.06
V3: T 3.66; Y 3.54; W 3.27; S 3.34; R 3.01; Q 3.17; P 3.87
C16: D 3.44; Q 4.37; I 3.69; L 4; K 3.86; R 4.22; F 3.58
E6: H 5.82; N 3.49; M 2.6; Q 2.78; G 2.36; F 2.14; V 2.66; P 3; Y 1.76; C 2.23; W 1.56; T 2.79; I 2; R 3.04
G8: C 3.67; M 2.59; W 2.01; I 2.78; Q 3.99; F 2.46; P 3.24; T 2.72; Y 1.74; N 3.41; K 3.03; R 2.77; H 2.54
S4: V 3.23; Y 2.92; A 4.39; N 4.34; C 3.24; L 3.81; G 3.64; F 2.45; D 3.41; M 1.58; E 4.2; K 3.77; T 2.54; W 2.79
D14: H 2.5; I 3.65; V 3.22; A 2.13; M 2.18; N 2.35; K 3.66
W5: M 3.06; D 4.85; V 4.44; Q 4.19; C 4.24; E 4.64; T 4.04; R 3.04; I 3.7; L 3.12; S 4.06; P 5.67; Y 2.91; F 3.53; K 4.84
